Data reported in patent US10160948B2, “Pluripotent embryonic-like stem cells, compositions, methods and uses thereof” (ABT HOLDING COMPANY, priority 1999, dated 2018).

Columns and labels:
[1] = system: pluripotent stem cells; test: Proliferation and phenotypic responses to bioactive factors: pluripotent cells; assay type: cell-based
Source text: (§1) Having access to mixed populations of progenitor stem cells, progenitor stem cell clones, and pluripotent stem cell clones permits one to address the influence of various bioactive factors (e.g. recombinant growth factors, purified compounds, and novel inductive factors) on the growth characteristics and phenotypic expression of these stem cells.
Cryopreserved cells are thawed and plated in MSC-1 at 5, 10, or 20×10^3 cells per well of gelatinized 24-well plates following the standard protocol. Twenty-four hours after initial plating the medium is changed to testing medium (TM) 1 to 6 (TM-1, TM-2, TM-3, TM-4, TM-5, or TM-6). TM-1 to TM-4 consist of Ultraculture (cat. no. 12-725B, lot. nos. OMO455 [TM-1], 1M1724 [TM-2], 2M0420 [TM-3], or 2M0274 [TM-4], Bio-Whittaker, Walkersville, Md.), medium (EMEM or Opti-MEM 0.01 mM β-mercaptoethanol), and 1% (v/v) antibiotic-antimycotic, pH 7.4. TM-5 consists of 98% (v/v) medium, 1% (v/v) HS, and 1% (v/v) antibiotic-antimycotic, pH 7.4. TM-6 consists of 98.5% (v/v) medium, 0.5% (v/v) HS, and 1% (v/v) antibiotic-antimycotic, pH 7.4. […] Four testing media (TM#'s 1-4), each containing various concentrations of Ultraculture, were used as. […] The four Ultraculture-based testing media were: TM-1=15% (v/v) Ultraculture (Lot no. OMO455): 84% (v/v) medium: 1% (v/v) antibiotics; TM-2=15% (v/v) Ultraculture (Lot no. 1M1724): 84% (v/v) medium: 1% (v/v) antibiotics; TM-3=50% (v/v) Ultraculture (Lot no. 2M0420): 49% (v/v) medium: 1% (v/v) antibiotics; and TM-4=75% (v/v) Ultraculture (Lot no. 2M0274): 24% (v/v) medium: 1% (v/v) antibiotics. Pre-incubation for 24 hr in testing medium alone is used to wash out any potential synergistic components in the MSC-1 medium. Twenty-four hours later the testing medium is changed to one of the following. For controls, TM-1 to TM-6 alone is used. To identify clones of progenitor cells, the medium is replaced with TM-1 to TM-6 containing 2 μg/ml insulin (Sigma), an agent that accelerates the appearance of phenotypic expression markers in progenitor cells (TABLE 12). […]

[2] = system: progenitor stem cells; test: Proliferation and phenotypic responses to bioactive factors: progenitor cells; assay type: cell-based
Source text: as §1
Cryopreserved cells are thawed and plated in MSC-1 at 5, 10, or 20×10^3 cells per well of gelatinized 24-well plates following the standard protocol. Twenty-four hours after initial plating the medium is changed to testing medium (TM) 1 to 6 (TM-1, TM-2, TM-3, TM-4, TM-5, or TM-6). TM-1 to TM-4 consist of Ultraculture (cat. no. 12-725B, lot. nos. OMO455 [TM-1], 1M1724 [TM-2], 2M0420 [TM-3], or 2M0274 [TM-4], Bio-Whittaker, Walkersville, Md.), medium (EMEM or Opti-MEM 0.01 mM β-mercaptoethanol), and 1% (v/v) antibiotic-antimycotic, pH 7.4. TM-5 consists of 98% (v/v) medium, 1% (v/v) HS, and 1% (v/v) antibiotic-antimycotic, pH 7.4. TM-6 consists of 98.5% (v/v) medium, 0.5% (v/v) HS, and 1% (v/v) antibiotic-antimycotic, pH 7.4. […] Four testing media (TM#'s 1-4), each containing various concentrations of Ultraculture, were used as. […]

[3] = presence and approximate distribution of differentiated phenotypes within the culture wells

B1: PDECGF: Platelet-derived endothelial cell growth factor (protein, UniProt P19971 11-482, looked up)
Thymidine phosphorylase: APPAPGDFSGEGSQGLPDPSPEPKQLPELIRMKRDGGRLSEADIRGFVAAVVNGSAQGAQIGAMLMAIRLRGMDLEETSVLTQALAQSGQQLEWPEAWRQQLVDKHSTGGVGDKVSLVLAPALAACGCKVPMISGRGLGHTGGTLDKLESIPGFNVIQSPEQMQVLLDQAGCCIVGQSEQLVPADGILYAARDVTATVDSLPLITASILSKKLVEGLSALVVDVKFGGAAVFPNQEQARELAKTLVGVGASLGLRVAAALTAMDKPLGRCVGHALEVEEALLCMDGAGPPDLRDLVTTLGGALLWLSGHAGTQAQGAARVAAALDDGSALGRFERMLAAQGVDPGLARALCSGSPAERRQLLPRAREQEELLAPADGTVELVRALPLALVLHELGAGRSRAGEPLRLGVGAELLVDVGQRLRRGTPWLRVHRDGPALSGPQSRALQEALVLSDRAPFAAPSPFAELVLPPQQ
Proliferation, Pluripotent: number of times the agent increased the DNA content per well versus its respective control [1]: 1 times
activity on pluripotent and progenitor stem cells, in words ([1]; pluripotent and progenitor cells): no measurable effect on either progenitor or pluripotent stem cells
Phenotypic Expression, Pluripotent [1, 3]: 0
Proliferation, Progenitor: number of times the agent increased the DNA content per well versus its respective control [2]: 1 times
Phenotypic Expression, Progenitor [2, 3]: All+
